Test results: IntAct's records for PubMed 31515488

B1: Peroxisomal bifunctional enzyme (Homo sapiens), Q08426 (parent)
chain: MAEYTRLHNALALIRLRNPPVNAISTTLLRDIKEGLQKAVIDHTIKAIVICGAEGKFSAGADIRGFSAPRTFGLTLGHVVDEIQRNEKPVVAAIQGMAFGGGLELALGCHYRIAHAEAQVGLPEVTLGLLPGARGTQLLPRLTGVPAALDLITSGRRILADEALKLGILDKVVNSDPVEEAIRFAQRVSDQPLESRRLCNKPIQSLPNMDSIFSEALLKMRRQHPGCLAQEACVRAVQAAVQYPYEVGIKKEEELFLYLLQSGQARALQYAFFAERKANKWSTPSGASWKTASARPVSSVGVVGLGTMGRGIVISFARARIPVIAVDSDKNQLATANKMITSVLEKEASKMQQSGHPWSGPKPRLTSSVKELGGVDLVIEAVFEEMSLKKQVFAELSAVCKPEAFLCTNTSALDVDEIASSTDRPHLVIGTHFFSPAHVMKLLEVIPSQYSSPTTIATVMNLSKKIKKIGVVVGNCFGFVGNRMLNPYYNQAYFLLEEGSKPEEVDQVLEEFGFKMGPFRVSDLAGLDVGWKSRKGQGLTGPTLLPGTPARKRGNRRYCPIPDVLCELGRFGQKTGKGWYQYDKPLGRIHKPDPWLSKFLSRYRKTHHIEPRTISQDEILERCLYSLINEAFRILGEGIAASPEHIDVVYLHGYGWPRHKGGPMFYASTVGLPTVLEKLQKYYRQNPDIPQLEPSDYLKKLASQGNPPLKEWQSLAGSPSSKL
partner: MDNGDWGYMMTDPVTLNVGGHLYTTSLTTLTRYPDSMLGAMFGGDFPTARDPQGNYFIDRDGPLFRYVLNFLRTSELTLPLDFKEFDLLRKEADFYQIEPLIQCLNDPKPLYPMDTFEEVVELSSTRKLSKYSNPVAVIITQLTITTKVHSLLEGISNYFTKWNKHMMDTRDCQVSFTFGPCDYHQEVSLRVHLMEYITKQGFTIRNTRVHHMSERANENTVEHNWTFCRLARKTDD
B2: RUN and FYVE domain-containing protein 1 (Homo sapiens), Q96T51-2 (parent)
chain: MMEERANLMHMMKLSIKVLLQSALSLGRSLDADHAPLQQFFVVMEHCLKHGLKVKKSFIGQNKSFFGPLELVEKLCPEASDIATSVRNLPELKTAVGRGRAWLYLALMQKKLADYLKVLIDNKHLLSEFYEPEALMMEEEGMVIVGLLVGLNVLDANLCLKGEDLDSQVGVIDFSLYLKDVQDLDGGKEHERITDVLDQKNYVEELNRHLSCTVGDLQTKIDGLEKTNSKLQEELSAATDRICSLQEEQQQLREQNELIRERSEKSVEITKQDTKVELETYKQTRQGLDEMYSDVWKQLKEEKKVRLELEKELELQIGMKTEMEIAMKLLEKDTHEKQDTLVALRQQLEEVKAINLQMFHKAQNAESSLQQKNEAITSFEGKTNQVMSSMKQMEERLQHSERARQGAEERSHKLQQELGGRIGALQLQLSQLHEQCSSLEKELKSEKEQRQALQRELQHEKDTSSLLRMELQQVEGLKKELRELQDEKAELQKICEEQEQALQEMGLHLSQSKLKMEDIKEVNQALKGHAWLKDDEATHCRQCEKEFSISRRKHHCRNCGHIFCNTCSSNELALPSYPKPVRVCDSCHTLLLQRCSSTAS
partner: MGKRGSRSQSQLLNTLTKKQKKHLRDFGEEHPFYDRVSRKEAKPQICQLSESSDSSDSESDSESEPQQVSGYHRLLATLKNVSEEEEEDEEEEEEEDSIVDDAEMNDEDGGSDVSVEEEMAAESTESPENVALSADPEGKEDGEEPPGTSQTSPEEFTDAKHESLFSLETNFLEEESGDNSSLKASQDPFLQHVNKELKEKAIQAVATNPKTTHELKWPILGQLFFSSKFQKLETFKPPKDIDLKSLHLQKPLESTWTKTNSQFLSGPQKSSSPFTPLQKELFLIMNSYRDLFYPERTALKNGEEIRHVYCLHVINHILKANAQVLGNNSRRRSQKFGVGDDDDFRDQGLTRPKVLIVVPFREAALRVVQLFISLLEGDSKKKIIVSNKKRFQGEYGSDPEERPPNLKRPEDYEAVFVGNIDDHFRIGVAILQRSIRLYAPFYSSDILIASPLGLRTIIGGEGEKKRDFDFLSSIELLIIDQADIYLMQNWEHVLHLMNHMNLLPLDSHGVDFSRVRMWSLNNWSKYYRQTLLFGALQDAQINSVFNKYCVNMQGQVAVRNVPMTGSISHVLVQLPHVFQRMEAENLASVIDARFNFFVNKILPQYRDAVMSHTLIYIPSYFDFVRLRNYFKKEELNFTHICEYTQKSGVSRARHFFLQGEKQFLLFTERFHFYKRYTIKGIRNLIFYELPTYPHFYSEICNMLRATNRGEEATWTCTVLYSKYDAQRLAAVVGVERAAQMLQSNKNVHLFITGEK
B3: Inositol monophosphatase 1 (Homo sapiens), P29218-1 (parent)
chain: MADPWQECMDYAVTLARQAGEVVCEAIKNEMNVMLKSSPVDLVTATDQKVEKMLISSIKEKYPSHSFIGEESVAAGEKSILTDNPTWIIDPIDGTTNFVHRFPFVAVSIGFAVNKKIEFGVVYSCVEGKMYTARKGKGAFCNGQKLQVSQQEDITKSLLVTELGSSRTPETVRMVLSNMEKLFCIPVHGIRSVGTAAVNMCLVATGGADAYYEMGIHCWDVAGAGIIVTEAGGVLMDVTGGPFDLMSRRVIAANNRILAERIAKEIQVIPLQRDDED
partner: B3 chain
B4: Protein FAM9B (Homo sapiens), Q8IZU0 (parent)
chain: MAAWGKKHAGKDPVRDECEERNRFTETREEDVTDEHGEREPFAETDEHTGANTKKPEDTAEDLTAKRKRMKMDKTCSKTKNKSKHALRKKQLKRQKRDYIHSLKLLNVLEEYITDEQKEEEEEEGEEEELIRIFQEQQKKWQQYRSVRRERLKEMKLLRDQFVKALEDFEDLCDRVFSDEDSELDN
partner: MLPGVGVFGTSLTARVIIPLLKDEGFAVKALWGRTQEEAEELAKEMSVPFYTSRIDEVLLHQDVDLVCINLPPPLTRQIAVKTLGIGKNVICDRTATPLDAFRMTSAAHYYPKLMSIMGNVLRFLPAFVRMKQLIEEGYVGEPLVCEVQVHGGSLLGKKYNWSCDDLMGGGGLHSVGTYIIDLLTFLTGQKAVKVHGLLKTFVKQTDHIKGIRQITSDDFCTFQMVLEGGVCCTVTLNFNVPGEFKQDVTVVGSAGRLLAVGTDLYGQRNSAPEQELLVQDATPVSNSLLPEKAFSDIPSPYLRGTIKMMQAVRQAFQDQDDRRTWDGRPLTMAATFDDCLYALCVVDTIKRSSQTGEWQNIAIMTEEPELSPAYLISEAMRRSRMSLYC

Variants of: B1
Conditions: with kctd6_human KCTD6, Q8NC69

Variant | effect of a mutation on the interaction
S703F | with no effect
I646T | disrupting interaction strength
R483Q | disrupting interaction strength

Variants of: B2
Conditions: with utp25_human UTP25, Q68CQ4

Variant | effect of a mutation on the interaction
C159F | with no effect

Variants of: B3
Conditions: with impa1_human IMPA1, P29218

Variant | effect of a mutation on the interaction
G164S | with no effect

Variants of: B4
Conditions: with gfod1_human GFOD1, Q9NXC2

Variant | effect of a mutation on the interaction
R23H | with no effect
